According to article PMC6309729 (Biochemistry, 2011):
Numbering of substitutions follows the chain as printed. In names and notes the source's numbering stands. Where two headings read alike, the source gives them in different places.

B1: cpFtsY (chloroplast SRP receptor), wildtype (natural protein, UniProt O80842 41-366, looked up)
chain: CSAGPSGFFTRLGRLIKEKAKSDVEKVFSGFSKTRENLAVIDELLLFWNLAETDRVLDELEEALLVSDFGPKITVRIVERLREDIMSGKLKSGSEIKDALKESVLEMLAKKNSKTELQLGFRKPAVIMIVGVNGGGKTTSLGKLAHRLKNEGTKVLMAAGDTFRAAASDQLEIWAERTGCEIVVAEGDKAKAATVLSKAVKRGKEEGYDVVLCDTSGRLHTNYSLMEELIACKKAVGKIVSGAPNEILLVLDGNTGLNMLPQAREFNEVVGITGLILTKLDGSARGGCVVSVVEELGIPVKFIGVGEAVEDLQPFDPEAFVNAIFS
B2: cpFtsY(A169L) (natural protein)
chain: B1 chain with A167L
modifications: GTP/GMPPNP-Mg2+ state. Paper numbering + 38 = precursor (motif D163-x-F165-R166-A167-A168-A169), anchored on the named residues
B3: cpFtsY(A169W) (natural protein)
chain: B1 chain with A167W
modifications: GTP/GMPPNP-Mg2+ state. Paper numbering + 38 = precursor
B4: cpSRP54(A143L) (natural protein)
chain: MFGQLTGGLEAAWSKLKGEEVLTKDNIAEPMRDIRRALLEADVSLPVVRRFVQSVSDQAVGMGVIRGVKPDQQLVKIVHDELVKLMGGEVSELQFAKSGPTVILLAGLQGVGKTTVCAKLACYLKKQGKSCMLIAGDVYRPALIDQLVILGEQVGVPVYTAGTDVKPADIAKQGLKEAKKNNVDVVIMDTAGRLQIDKGMMDELKDVKKFLNPTEVLLVVDAMTGQEAAALVTTFNVEIGITGAILTKLDGDSRGGAALSVKEVSGKPIKLVGRGERMEDLEPFYPDRMAGRILGMGDVLSFVEKATEVMRQEDAEDLQKKIMSAKFDFNDFLKQTRAVAKMGSMTRVLGMIPGMGKVSPAQIREAEKNLLVMEAMIEVMTPEERERPELLAESPERRKRIAKDSGKTEQQVSALVAQIFQMRVKMKNLMGVMEGGSIPALSGLEDALKAEQKAPPGTARRKRKADSRKKFVESASSKPGPRGFGSGN
modifications: GTP/GMPPNP-Mg2+ state. Paper numbering + 76 = precursor (Met77 = 1, taken as the NdeI start)
B5: cpSRP54(A143W) (natural protein)
chain: B4 chain with L143W
modifications: GTP/GMPPNP-Mg2+ state. Paper numbering + 76 = precursor

How the values were obtained:
[1] = target: T1, cpSRP54 (chloroplast SRP54), wildtype (Arabidopsis thaliana, UniProt P37107 76-564); experiment: cell-based or functional assay
T1 sequence (looked up): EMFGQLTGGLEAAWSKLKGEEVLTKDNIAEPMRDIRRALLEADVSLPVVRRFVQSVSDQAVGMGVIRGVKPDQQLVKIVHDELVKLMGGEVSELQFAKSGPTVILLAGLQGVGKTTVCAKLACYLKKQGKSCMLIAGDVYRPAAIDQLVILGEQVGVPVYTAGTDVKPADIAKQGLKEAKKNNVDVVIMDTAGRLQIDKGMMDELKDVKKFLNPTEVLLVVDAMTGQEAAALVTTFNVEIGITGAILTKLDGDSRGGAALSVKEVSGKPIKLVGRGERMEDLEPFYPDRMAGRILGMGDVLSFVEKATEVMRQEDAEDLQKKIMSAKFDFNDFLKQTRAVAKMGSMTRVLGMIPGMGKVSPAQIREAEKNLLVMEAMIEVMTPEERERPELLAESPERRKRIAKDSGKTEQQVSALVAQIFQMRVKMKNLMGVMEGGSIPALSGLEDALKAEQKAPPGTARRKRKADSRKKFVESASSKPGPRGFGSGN

[2] = target: T1, cpSRP54 (chloroplast SRP54), wildtype; experiment: GTPase inhibition assay
[3] = target: T1, cpSRP54 (chloroplast SRP54), wildtype; experiment: GTPase inhibition assay; remark: listed apart in the source
[4] = target: B1; experiment: GTPase inhibition assay
[5] = target: B1; experiment: cell-based or functional assay
[6] = target: B1; experiment: GTPase inhibition assay; remark: listed apart in the source

kcat/Km of the reciprocally stimulated GTPase reaction [1] [M⁻¹ s⁻¹]	Ki [2] [µM]	Ki [3] [µM]	Ki [4] [µM]	kcat/Km of the reciprocally stimulated GTPase reaction [5] [M⁻¹ s⁻¹]	Ki [6] [µM]	Binder
300000	–	–	–	–	–	B1
517	> 40	–	–	–	–	B2
467	> 40	> 50	–	–	–	B3
–	–	–	> 40	200	–	B4
–	–	–	> 40	617	> 50	B5
